Data published in paper doi:10.1101/2021.02.24.432666.

Molecular target: yeast TRiC subunit CCT5 (yeast) (UniProt P40413)
Experiment: cryo-EM structure

yeast TRiC subunit CCT5 (from UniProt P40413 1-562) (natural protein)
stoichiometry N (subunits (single ring)): 8
